From US20190367615A1 (BEIJING HANMI PHARM, published 2019)

How the values were obtained:
[1] = target: Recombinant human PD-L1 (Sino Biological Inc.) (human, UniProt Q9NZQ7 19-239); experiment: binding specificity ELISA, coated recombinant human PD-L1, anti-human IgG-HRP
Experimental: (§1) The plate was washed five times with PBST and blocked with 300 μL/well of PBST containing 1% BSA and incubated at 25° C. for 1 hour. The plate was washed five times with PBST. […] The plate was washed five times with PBST. Then, horseradish peroxidase-labeled anti-human IgG antibody (Chemicon, Catalog Number AP309P) 1:2000 diluted in PBST containing 1% BSA was added, 100 μL was added to each well, incubated at 25° C. for 1 hour. The plate was washed five times with PBST. 100 μL/well of colorimetric substrate TMB was added and incubated at room temperature for 10 minutes. Color development was terminated by adding 100 μL/well of 1 M H₂SO₄. The absorbance at 450 nm was read on a microplate reader.

[2] = target: T1, Recombinant human PD-1 (Sino Biological Inc., Catalog Number 10377-H08H) (human, UniProt Q15116 25-167); experiment: ELISA, human PD-1 coated
T1 construct: Bought protein; also called antigen PD-1
T1 sequence (Q15116 25-167 limits assumed): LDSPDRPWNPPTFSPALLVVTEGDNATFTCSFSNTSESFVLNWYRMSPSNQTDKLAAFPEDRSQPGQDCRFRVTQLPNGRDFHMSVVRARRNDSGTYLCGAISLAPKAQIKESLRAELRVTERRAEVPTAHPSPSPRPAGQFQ
Experimental: Recombinant human PD-1 (purchased from Sino Biological Inc.) was coated on a 96-well high-absorbing ELISA plate with a carbonate buffer solution with pH 9.6, the coating concentration was 1 μg/mL, the coating amount was 100 μL per well, and the coating was carried out at 4° C. overnight. The plate was washed five times with PBST and blocked with 300 μL/well of PBST containing 1% BSA, and then incubated at 25° C. for 1 hour. The plate was washed five times with PBST. […] The plate was washed five times with PBST. Then, horseradish peroxidase-labeled anti-human IgG antibody (Chemicon, Catalog Number AP309P) 1:2000 diluted in PBST containing 1% BSA was added, 100 μL per well, incubated at 25° C. for 1 hour. The plate was washed five times with PBST. 100 μL/well of colorimetric substrate TMB was added and incubated at room temperature for 10 minutes. Color development was terminated by adding 100 μL/well of 1 M H₂SO₄. The absorbance at 450 nm was read on a microplate reader.

[3] = target: T2, Recombinant human PD-1-Fc (human, UniProt Q15116 25-167, limits assumed); experiment: competition ELISA, coated human PD-1-Fc, blocked ligand biotin-labeled PD-L2 (final 160 nM), streptavidin-HRP, OD450nm [panel PD-1/PD-L2 Blocking Activity]
T2 construct: also called recombinant human PD-1-Fc protein; not shown: Fc part
T2 sequence (Q15116 25-167 limits assumed): as above
Experimental: (§2) Recombinant human PD-1-Fc was coated on a 96-well high-absorbing ELISA plate with a carbonate buffer solution with pH 9.6, the coating concentration was 1 μg/mL, the coating amount was 100 μL per well, and the coating was carried at 4° C. out overnight. The plate was washed five times with PBST and blocked with 300 μL/well of PBST containing 1% BSA and incubated at 25° C. for 1 hour. The plate was washed five times with PBST. The positive control and the anti-human PD-1 antibody sample were added, 50 μL per well. […] The plate was washed five times with PBST. Then, Streptavidin-HRP (BD Pharmingen, Catalog Number 554066) 1:1000 diluted in PBST containing 1% BSA was added, 100 μL per well, incubated at 25° C. for 1 hour. The plate was washed five times with PBST. 100 μL/well of colorimetric substrate TMB was added and incubated at room temperature for 10 minutes. Color development was terminated by adding 100 μL/well of 1 M H₂SO₄. The absorbance at 450 nm was read on a microplate reader.

[4] = target: T3, Recombinant human CD86 (Sino Biological Inc.) (human, UniProt P42081 24-247, limits assumed); experiment: binding specificity ELISA, coated recombinant human CD86, anti-human IgG-HRP
T3 sequence (looked up): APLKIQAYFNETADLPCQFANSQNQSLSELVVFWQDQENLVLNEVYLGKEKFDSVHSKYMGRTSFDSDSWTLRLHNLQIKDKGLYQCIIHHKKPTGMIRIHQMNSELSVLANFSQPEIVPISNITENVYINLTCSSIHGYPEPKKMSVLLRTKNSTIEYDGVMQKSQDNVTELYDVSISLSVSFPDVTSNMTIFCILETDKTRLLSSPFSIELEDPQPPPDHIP
Experimental: as §1

[5] = target: T4, Recombinant human CD80 (Sino Biological Inc.) (human, UniProt P33681 35-242); experiment: binding specificity ELISA, coated recombinant human CD80, anti-human IgG-HRP
T4 sequence (looked up): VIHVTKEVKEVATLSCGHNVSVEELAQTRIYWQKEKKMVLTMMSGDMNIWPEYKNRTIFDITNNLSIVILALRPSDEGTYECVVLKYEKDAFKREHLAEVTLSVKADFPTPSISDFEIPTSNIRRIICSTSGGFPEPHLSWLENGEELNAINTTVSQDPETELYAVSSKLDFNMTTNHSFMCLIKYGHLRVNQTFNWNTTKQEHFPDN
Experimental: as §1

[6] = target: T2, Recombinant human PD-1-Fc; experiment: competition ELISA, coated human PD-1-Fc, blocked ligand biotin-labeled PD-L1 (final 10 nM), streptavidin-HRP, OD450nm [panel PD-1/PD-L1 Blocking Activity]
Experimental: as §2

[7] = target: T5, Recombinant mouse PD-1 (Sino Biological Inc.) (mouse, UniProt Q02242 25-167); experiment: species specificity ELISA, coated recombinant mouse PD-1, anti-human IgG-HRP
T5 sequence (looked up): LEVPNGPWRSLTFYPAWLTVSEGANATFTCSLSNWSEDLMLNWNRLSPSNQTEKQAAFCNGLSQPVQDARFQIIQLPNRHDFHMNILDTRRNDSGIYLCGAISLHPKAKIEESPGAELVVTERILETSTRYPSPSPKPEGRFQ
Experimental: Recombinant human PD-1, monkey PD-1, rat PD-1 and mouse PD-1 (all purchased from Sino Biological Inc.), were coated on a 96-well high-absorbing ELISA plate with a carbonate buffer solution with pH 9.6, the coating concentration was 1 μg/mL, the coating amount was 100 μL per well, and the coating was carried out at 4° C. overnight. The plate was washed five times with PBST and blocked with 300 μL/well of PBST containing 1% BSA, and then incubated at 25° C. for 1 hour. The plate was washed five times with PBST. […] The plate was washed five times with PBST. Then, horseradish peroxidase-labeled anti-human IgG antibody (Chemicon, Catalog Number AP309P) 1:2000 diluted in PBST containing 1% BSA was added, 100 μL per well, incubated at 25° C. for 1 hour. The plate was washed five times with PBST. 100 μL/well of colorimetric substrate TMB was added and incubated at room temperature for 10 minutes. Color development was terminated by adding 100 μL/well of 1 M H₂SO₄: The absorbance at 450 nm was read on a microplate reader.

Sequence of Recombinant human PD-L1 (Sino Biological Inc.) (Q9NZQ7 19-239 limits assumed): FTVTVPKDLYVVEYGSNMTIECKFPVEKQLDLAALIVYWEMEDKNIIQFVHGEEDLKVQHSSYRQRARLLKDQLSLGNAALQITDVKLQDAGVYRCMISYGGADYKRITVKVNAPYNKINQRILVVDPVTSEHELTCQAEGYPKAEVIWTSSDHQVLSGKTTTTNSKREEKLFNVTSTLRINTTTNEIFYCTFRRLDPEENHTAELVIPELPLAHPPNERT

B1: anti-human PD-1 chimeric monoclonal antibody (antibody, human IgG4 S228P, kappa, V domains shown)
VH: EVQLQESGGGLVKPGGSLKLSCAASGFTFSSYGMSWVRQTPEKRLEWVASISGGGRYTYYPDSMKGRFTISRDNAKNNLHLQMSSLRSEDTALYYCVYEYFYTMDYWGQGTSVTVSS
VL: DIVLTQSPATLSVTPGDSVSLSCRANQSISNNLHWYQQRSHESPRLLIRFASQSISGIPSRFSGSGSGTDFTLSINSVETEDFGMYFCQQSDNWPLTFGAGTKLEIKR
notes: expressed in 293F cells; also called Anti-human PD-1 Chimeric Antibody; chimeric anti-human PD-1 monoclonal antibody
[1]
  binding result: no binding
[2]
  EC50: 0.031 nM
[3]
  IC50: 0.895 nM
[4]
  binding result: no binding
[5]
  binding result: no binding
[6]
  IC50: 0.972 nM
[7]
  binding result: no binding (tested: about 20 nM)
